FretR data for three substances are collected here from publication PMC2965686.

Holding throughout (experiment): FRET or BRET
In general terms: In BRET a luciferase serves as donor, and the signal depends on an acceptor being close.

Experiment [1] addresses Mpc54-YFP (S. cerevisiae) (UniProt Q08550).
The target in experiment [2] is YFP-Cnm67 (S. cerevisiae) (UniProt P53865).
Experiment [3] addresses Spo21-YFP (S. cerevisiae) (UniProt Q12411).
Experiment [4] has as its target YFP-Spo21 (S. cerevisiae) (UniProt Q12411).

Sequence of UniProt P53865 (P53865 whole entry): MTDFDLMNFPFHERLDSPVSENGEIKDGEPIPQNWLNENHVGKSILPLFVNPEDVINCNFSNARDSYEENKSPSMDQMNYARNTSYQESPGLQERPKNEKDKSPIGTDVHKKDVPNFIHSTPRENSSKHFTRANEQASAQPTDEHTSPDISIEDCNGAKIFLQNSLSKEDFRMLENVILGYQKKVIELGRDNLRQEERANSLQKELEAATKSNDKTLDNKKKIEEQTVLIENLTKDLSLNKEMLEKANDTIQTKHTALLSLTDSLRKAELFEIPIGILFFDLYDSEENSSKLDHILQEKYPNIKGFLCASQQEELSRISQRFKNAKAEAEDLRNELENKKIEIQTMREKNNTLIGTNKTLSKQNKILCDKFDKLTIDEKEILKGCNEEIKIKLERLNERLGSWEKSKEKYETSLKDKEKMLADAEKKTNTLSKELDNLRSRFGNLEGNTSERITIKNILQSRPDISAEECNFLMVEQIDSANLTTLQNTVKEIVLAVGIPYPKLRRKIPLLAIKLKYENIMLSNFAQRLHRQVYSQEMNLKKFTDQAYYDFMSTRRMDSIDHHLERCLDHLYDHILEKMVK
Sequence of UniProt Q08550 (Q08550 whole entry): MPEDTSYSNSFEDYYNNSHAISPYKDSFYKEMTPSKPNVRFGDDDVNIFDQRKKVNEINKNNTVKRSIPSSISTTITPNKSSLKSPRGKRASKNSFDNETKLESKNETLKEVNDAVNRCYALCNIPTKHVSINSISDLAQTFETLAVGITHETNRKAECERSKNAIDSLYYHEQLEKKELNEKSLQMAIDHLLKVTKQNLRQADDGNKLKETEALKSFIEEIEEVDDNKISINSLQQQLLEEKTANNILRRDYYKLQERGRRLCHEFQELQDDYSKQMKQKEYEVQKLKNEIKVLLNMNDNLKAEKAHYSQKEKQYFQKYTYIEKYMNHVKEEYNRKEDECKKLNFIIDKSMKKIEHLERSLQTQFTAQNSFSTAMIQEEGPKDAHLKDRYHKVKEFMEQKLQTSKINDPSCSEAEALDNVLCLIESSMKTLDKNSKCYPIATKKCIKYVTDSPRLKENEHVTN

“Spo21-CFP (from UniProt Q12411 1-609) (natural protein)”: the FretR stood at 1.24 in experiment [1], 1.47 in experiment [2] and 1.34 in experiment [3].
For “Mpc54-CFP (from UniProt Q08550 1-464) (natural protein)”, the FretR in experiment [1] came out at 1.26; in experiment [2] it was 1.35.
In turn, “CFP-Mpc54 (from UniProt Q08550 1-464) (natural protein)” showed a FretR in experiment [4] of 1.23.
